± gives the uncertainty stated by the source.

Results on 34 variants are retold here after the Human Domainome abundance scans (Beltran et al. 2025).

B1: Receptor-interacting serine/threonine-protein kinase 2, residues 438 to 518; numbered along this chain, O43353 (parent)
chain: QWIQSKREDIVNQMTEACLNQSLDALLSRDLIMKEDYELVSTKPTRTSKVRQLLDTTDIQGEEFAKVIVQKLKDNKQMGLQ

The variants in this series derive from B1. Nature of the series: abundance fitness (aPCA) (normalised: wild type 0, dead -1); higher = more abundant; growth selection in yeast, the domain comes from the species named. The following applies: Homo sapiens.
QWIQSKREDIQNQMTEACLNQSLDALLSRDLIMKEDYELVSTKPTRTSKVRQLLDTTDIQGEEFAKVIVQKLKDNKQMGLQ: the abundance fitness is -0.776 ± 0.21.
The same measure for QWIQSKREDIFNQMTEACLNQSLDALLSRDLIMKEDYELVSTKPTRTSKVRQLLDTTDIQGEEFAKVIVQKLKDNKQMGLQ: -0.777 ± 0.46; for QWIQSKREDILNQMTEACLNQSLDALLSRDLIMKEDYELVSTKPTRTSKVRQLLDTTDIQGEEFAKVIVQKLKDNKQMGLQ: -0.373 ± 0.074; for QWIQSKREDINNQMTEACLNQSLDALLSRDLIMKEDYELVSTKPTRTSKVRQLLDTTDIQGEEFAKVIVQKLKDNKQMGLQ: -0.577 ± 0.27.
The same measure for QWIQSKREDIINQMTEACLNQSLDALLSRDLIMKEDYELVSTKPTRTSKVRQLLDTTDIQGEEFAKVIVQKLKDNKQMGLQ: 0.091 ± 0.12.
Take QWIQSKREDIHNQMTEACLNQSLDALLSRDLIMKEDYELVSTKPTRTSKVRQLLDTTDIQGEEFAKVIVQKLKDNKQMGLQ: the abundance fitness is -0.656 ± 0.29.
The same measure for QWIQSKREDIMNQMTEACLNQSLDALLSRDLIMKEDYELVSTKPTRTSKVRQLLDTTDIQGEEFAKVIVQKLKDNKQMGLQ: -0.099 ± 0.15; for QWIQSKREDISNQMTEACLNQSLDALLSRDLIMKEDYELVSTKPTRTSKVRQLLDTTDIQGEEFAKVIVQKLKDNKQMGLQ: -0.575 ± 0.071; for QWIQSKREDIVRQMTEACLNQSLDALLSRDLIMKEDYELVSTKPTRTSKVRQLLDTTDIQGEEFAKVIVQKLKDNKQMGLQ: -0.008 ± 0.059.
Regarding QWIQSKREDIVHQMTEACLNQSLDALLSRDLIMKEDYELVSTKPTRTSKVRQLLDTTDIQGEEFAKVIVQKLKDNKQMGLQ, the abundance fitness is -0.108 ± 0.11.
The same measure for QWIQSKREDIVDQMTEACLNQSLDALLSRDLIMKEDYELVSTKPTRTSKVRQLLDTTDIQGEEFAKVIVQKLKDNKQMGLQ: -0.089 ± 0.14; for QWIQSKREDIVGQMTEACLNQSLDALLSRDLIMKEDYELVSTKPTRTSKVRQLLDTTDIQGEEFAKVIVQKLKDNKQMGLQ: -0.162 ± 0.065; for QWIQSKREDIVWQMTEACLNQSLDALLSRDLIMKEDYELVSTKPTRTSKVRQLLDTTDIQGEEFAKVIVQKLKDNKQMGLQ: -0.829 ± 0.19.
On to QWIQSKREDIVCQMTEACLNQSLDALLSRDLIMKEDYELVSTKPTRTSKVRQLLDTTDIQGEEFAKVIVQKLKDNKQMGLQ, for which the abundance fitness is -0.028 ± 0.1.
QWIQSKREDIVQQMTEACLNQSLDALLSRDLIMKEDYELVSTKPTRTSKVRQLLDTTDIQGEEFAKVIVQKLKDNKQMGLQ: the abundance fitness is -0.248 ± 0.23.
In the case of QWIQSKREDIVVQMTEACLNQSLDALLSRDLIMKEDYELVSTKPTRTSKVRQLLDTTDIQGEEFAKVIVQKLKDNKQMGLQ it was -0.374 ± 0.086; in that of QWIQSKREDIVMQMTEACLNQSLDALLSRDLIMKEDYELVSTKPTRTSKVRQLLDTTDIQGEEFAKVIVQKLKDNKQMGLQ, -0.002 ± 0.19.
With QWIQSKREDIVFQMTEACLNQSLDALLSRDLIMKEDYELVSTKPTRTSKVRQLLDTTDIQGEEFAKVIVQKLKDNKQMGLQ, the abundance fitness was -0.62 ± 0.16.
For the variant QWIQSKREDIVYQMTEACLNQSLDALLSRDLIMKEDYELVSTKPTRTSKVRQLLDTTDIQGEEFAKVIVQKLKDNKQMGLQ, the abundance fitness is -0.382 ± 0.4.
In the case of QWIQSKREDIVSQMTEACLNQSLDALLSRDLIMKEDYELVSTKPTRTSKVRQLLDTTDIQGEEFAKVIVQKLKDNKQMGLQ it was -0.213 ± 0.071.
In the case of QWIQSKREDIVEQMTEACLNQSLDALLSRDLIMKEDYELVSTKPTRTSKVRQLLDTTDIQGEEFAKVIVQKLKDNKQMGLQ it was 0.199 ± 0.21; in that of QWIQSKREDIVPQMTEACLNQSLDALLSRDLIMKEDYELVSTKPTRTSKVRQLLDTTDIQGEEFAKVIVQKLKDNKQMGLQ, -0.978 ± 0.23.
The same measure for QWIQSKREDIVLQMTEACLNQSLDALLSRDLIMKEDYELVSTKPTRTSKVRQLLDTTDIQGEEFAKVIVQKLKDNKQMGLQ: -0.068 ± 0.059; for QWIQSKREDIVIQMTEACLNQSLDALLSRDLIMKEDYELVSTKPTRTSKVRQLLDTTDIQGEEFAKVIVQKLKDNKQMGLQ: -0.486 ± 0.21; for QWIQSKREDIVKQMTEACLNQSLDALLSRDLIMKEDYELVSTKPTRTSKVRQLLDTTDIQGEEFAKVIVQKLKDNKQMGLQ: -0.039 ± 0.15.
Take QWIQSKREDIVAQMTEACLNQSLDALLSRDLIMKEDYELVSTKPTRTSKVRQLLDTTDIQGEEFAKVIVQKLKDNKQMGLQ: the abundance fitness was 0.073 ± 0.093.
Consider QWIQSKREDIVNGMTEACLNQSLDALLSRDLIMKEDYELVSTKPTRTSKVRQLLDTTDIQGEEFAKVIVQKLKDNKQMGLQ, for which the abundance fitness is -0.365 ± 0.13.
In the case of QWIQSKREDIVNLMTEACLNQSLDALLSRDLIMKEDYELVSTKPTRTSKVRQLLDTTDIQGEEFAKVIVQKLKDNKQMGLQ it was -0.541 ± 0.16.
The same measure for QWIQSKREDIVNSMTEACLNQSLDALLSRDLIMKEDYELVSTKPTRTSKVRQLLDTTDIQGEEFAKVIVQKLKDNKQMGLQ: 0.072 ± 0.16; for QWIQSKREDIVNEMTEACLNQSLDALLSRDLIMKEDYELVSTKPTRTSKVRQLLDTTDIQGEEFAKVIVQKLKDNKQMGLQ: -0.027 ± 0.27.
Regarding QWIQSKREDIVNAMTEACLNQSLDALLSRDLIMKEDYELVSTKPTRTSKVRQLLDTTDIQGEEFAKVIVQKLKDNKQMGLQ, the abundance fitness came out at 0.032 ± 0.19.
The same measure for QWIQSKREDIVNFMTEACLNQSLDALLSRDLIMKEDYELVSTKPTRTSKVRQLLDTTDIQGEEFAKVIVQKLKDNKQMGLQ: -0.314 ± 0.45; for QWIQSKREDIVNRMTEACLNQSLDALLSRDLIMKEDYELVSTKPTRTSKVRQLLDTTDIQGEEFAKVIVQKLKDNKQMGLQ: -0.527 ± 0.18; for QWIQSKREDIVNMMTEACLNQSLDALLSRDLIMKEDYELVSTKPTRTSKVRQLLDTTDIQGEEFAKVIVQKLKDNKQMGLQ: -0.369 ± 0.48.
